Experimental data as given in patent US20260209350A1 (Alector, published 2026).

T1: human TREM2 Fc fusion protein (human, UniProt Q9NZC2 19-174)
T1 construct: also called hTREM2-Fc; not shown: Fc part not specified
T1 sequence: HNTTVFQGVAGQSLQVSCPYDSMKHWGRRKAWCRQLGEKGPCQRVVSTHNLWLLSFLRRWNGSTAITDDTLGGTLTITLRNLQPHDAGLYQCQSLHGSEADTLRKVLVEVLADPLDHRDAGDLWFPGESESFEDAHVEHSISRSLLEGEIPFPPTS

T2: human monomeric His tagged TREM2 protein (human, UniProt Q9NZC2 19-174)
T2 construct: also called hTREM2-HIS
T2 sequence: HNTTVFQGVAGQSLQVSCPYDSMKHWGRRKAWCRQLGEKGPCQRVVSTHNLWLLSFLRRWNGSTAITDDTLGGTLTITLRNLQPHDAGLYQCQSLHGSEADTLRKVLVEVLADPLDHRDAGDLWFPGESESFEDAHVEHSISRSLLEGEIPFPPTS

T3: mouse TREM2 on cells (mouse, UniProt Q99NH8 19-227)
T3 construct: whole, on cells; Used for the recombinant protein on BWZ/BW cells (with mouse DAP12) and for the native protein on mouse macrophages and dendritic cells; the cell type stands under assay; also called mTREM2; mTrem2
T3 sequence (looked up): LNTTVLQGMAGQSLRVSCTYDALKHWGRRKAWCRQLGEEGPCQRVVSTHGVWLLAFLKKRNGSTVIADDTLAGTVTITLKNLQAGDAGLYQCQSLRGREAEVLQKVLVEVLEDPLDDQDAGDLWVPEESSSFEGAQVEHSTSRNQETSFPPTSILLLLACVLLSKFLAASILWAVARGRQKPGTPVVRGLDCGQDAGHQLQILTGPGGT

T4: mouse TREM2 Fc fusion protein (mouse, UniProt Q99NH8 19-171)
T4 construct: also called mTREM2-Fc; not shown: Fc part not specified
T4 sequence (looked up): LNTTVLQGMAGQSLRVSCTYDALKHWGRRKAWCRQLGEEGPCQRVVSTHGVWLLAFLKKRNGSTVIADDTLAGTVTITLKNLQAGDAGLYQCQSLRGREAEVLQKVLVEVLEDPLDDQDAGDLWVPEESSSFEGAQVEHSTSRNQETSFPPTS

B1: Ab51 (antibody, human IgG1, V domains shown)
VH: QVQLVQSGAEVKKPGASVKVSCKASGYTFTSYYMHWVRQAPGQGLEWMGIINPSGGSTSYAQKFQGRVTMTRDTSTSTVYMELSSLRSEDTAVYYCARGVGGQDYYYMDVWGKGTTVTVSS
VL: DIQMTQSPSSLSASVGDRVTITCRASQSISSYLNWYQQKPGKAPKLLIYAASSLQSGVPSRFSGSGSGTDFTLTISSLQPEDFATYYCQQFDDVFTFGGGTKVEIK
notes: human IgG1
B2: Ab26 (antibody, human IgG1, V domains shown)
VH: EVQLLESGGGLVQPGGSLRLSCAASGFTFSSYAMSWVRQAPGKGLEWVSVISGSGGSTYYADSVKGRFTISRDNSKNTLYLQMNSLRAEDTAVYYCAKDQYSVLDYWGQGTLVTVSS
VL: EIVLTQSPATLSLSPGERATLSCRASQSVSSYLAWYQQKPGQAPRLLIYDASNRATGIPARFSGSGSGTDFTLTISSLEPEDFAVYYCQQEFDLPFTFGGGTKVEIK
notes: human IgG1
B3: Ab6 (antibody, human IgG1, V domains shown)
VH: QVQLVQSGAEVKKPGASVKVSCKASGYTFTSYYMHWVRQAPGQGLEWMGIINPGGGSTSYAQKFQGRVTMTRDTSTSTVYMELSSLRSEDTAVYYCARGSPTYGYLYDPWGQGTLVTVSS
VL: EIVLTQSPATLSLSPGERATLSCRASQSVSSYLAWYQQKPGQAPRLLIYDASKRATGIPARFSGSGSGTDFTLTISSLEPEDFAVYYCQQRVNLPPTFGGGTKVEIK
notes: human IgG1
B4: Ab33 (antibody, human IgG1, V domains shown)
VH: QVQLVESGGGVVQPGRSLRLSCAASGFTFSSYGMHWVRQAPGKGLEWVAVISYDGSNKYYADSVKGRFTISRDNSKNTLYLQMNSLRAEDTAVYYCARAGGHLFDYWGQGTLVTVSS
VL: EIVLTQSPATLSLSPGERATLSCRASQSVSSYLAWYQQKPGQAPRLLIYDASNRATGIPARFSGSGSGTDFTLTISSLEPEDFAVYYCQQDSSFPPTFGGGTKVEIK
notes: human IgG1
B5: Ab87 (antibody, human IgG1, V domains shown)
VH: QVQLQESGPGLVKPSETLSLTCTVSGGSISSYYWSWIRQPPGKGLEWIGSIYYSGSTNYNPSLKSRVTISVDTSKNQFSLKLSSVTAADTAVYYCARHGWDRVGWFDPWGQGTLVTVSS
VL: EIVLTQSPATLSLSPGERATLSCRASQSVSRYLAWYQQKPGQAPRLLIYDASNRATGIPARFSGSGSGTDFTLTISSLEPEDFAVYYCQQYIFWPPTFGGGTKVEIK
notes: human IgG1
B6: Ab62 (antibody, human IgG1, V domains shown)
VH: EVQLVQSGAEVKKPGESLKISCKGSGYSFTSYWIGWVRQMPGKGLEWMGIIYPGDSDTRYSPSFQGQVTISADKSISTAYLQWSSLKASDTAMYYCARAGHYDDWSGLGLDVWGQGTMVTVSS
VL: EIVLTQSPATLSLSPGERATLSCRASQSVSSYLAWYQQKPGQAPRLLIYDASKRATGIPARFSGSGSGTDFTLTISSLEPEDFAVYYCQQSSVHPYTFGGGTKVEIK
notes: human IgG1
B7: Ab18 (antibody, human IgG1, V domains shown)
VH: QVQLQESGPGLVKPSETLSLTCTVSGGSISSYYWSWIRQPPGKGLEWIGSIYYSGSTNYNPSLKSRVTISVDTSKNQFSLKLSSVTAADTAVYYCARDGGGEYPSGTPFDIWGQGTMVTVSS
VL: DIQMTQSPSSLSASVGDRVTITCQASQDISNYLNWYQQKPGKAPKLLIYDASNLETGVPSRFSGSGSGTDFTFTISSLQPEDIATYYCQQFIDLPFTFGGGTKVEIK
notes: human IgG1
B8: Ab19 (antibody, human IgG1, V domains shown)
VH: QVQLQESGPGLVKPSETLSLTCTVSGGSISSYYWSWIRQPPGKGLEWIGSIYYSGSTNYNPSLKSRVTISVDTSKNQFSLKLSSVTAADTAVYYCARDGGGEYPSGTPFDIWGQGTMVTVSS
VL: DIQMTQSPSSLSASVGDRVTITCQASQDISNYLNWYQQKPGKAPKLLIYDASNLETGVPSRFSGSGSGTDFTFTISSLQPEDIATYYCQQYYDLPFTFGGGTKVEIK
notes: human IgG1
B9: Ab12 (antibody, human IgG1, V domains shown)
VH: EVQLVQSGAEVKKPGESLKISCKGSGYSFTSYWIGWVRQMPGKGLEWMGIIYPGDSDTRYSPSFQGQVTISADKSISTAYLQWSSLKASDTAMYYCARLGHYSGTVSSYGMDVWGQGTTVTVSS
VL: DIQMTQSPSSLSASVGDRVTITCRASQSISSYLNWYQQKPGKAPKLLIYAASSLQSGVPSRFSGSGSGTDFTLTISSLQPEDFATYYCQQEYAVPYTFGGGTKVEIK
notes: human IgG1
B10: Ab54 (antibody, human IgG1, V domains shown)
VH: QVQLVQSGAEVKKPGASVKVSCKASGYTFTSYYMHWVRQAPGQGLEWMGIINPSGGSTSYAQKFQGRVTMTRDTSTSTVYMELSSLRSEDTAVYYCARGPGYTTALDYYYMDVWGKGTTVTVSS
VL: DIQMTQSPSSLSASVGDRVTITCRASQSINSYLNWYQQKPGKAPKLLIYAASSLQSGVPSRFSGSGSGTDFTLTISSLQPEDFATYYCQQSDDDPFTFGGGTKVEIK
notes: human IgG1
B11: Ab34 (antibody, human IgG1, V domains shown)
VH: QVQLVESGGGVVQPGRSLRLSCAASGFTFSSYGMHWVRQAPGKGLEWVAVISYDGSNKYYADSVKGRFTISRDNSKNTLYLQMNSLRAEDTAVYYCARDRGGEYVDFAFDIWGQGTMVTVSS
VL: DIQMTQSPSSLSASVGDRVTITCRASQSISSYLNWYQQKPGKAPKLLIYAASSLQSGVPSRFSGSGSGTDFTLTISSLQPEDFATYYCQQSDFPPWTFGGGTKVEIK
notes: human IgG1
B12: Ab31 (antibody, human IgG1, V domains shown)
VH: QVQLVESGGGVVQPGRSLRLSCAASGFTFSSYGMHWVRQAPGKGLEWVALIWYDGSNKYYADSVKGRFTISRDNSKNTLYLQMNSLRAEDTAVYYCARRRDGYYDEVFDIWGQGTMVTVSS
VL: DIQLTQSPSSLSASVGDRVTITCQASQDISNFLNWYQQKPGKAPKLLIYDASNLETGVPSRFSGSGSGTDFTFTISSLQPEDIATYYCQQPVDLPFTFGGGTKVEIK
notes: human IgG1
B13: Ab3 (antibody, human IgG1, V domains shown)
VH: QVQLVQSGAEVKKPGSSVKVSCKASGGTFSSYAISWVRQAPGQGLEWMGGIIPIFGTANYAQKFQGRVTITADESTSTAYMELSSLRSEDTAVYYCAREQYHVGMDVWGKGTTVTVSS
VL: DIQMTQSPSSLSASVGDRVTITCQASQDISNYLNWYQQKPGKAPKLLIYDASNLATGVPSRFSGSGSGTDFTFTISSLQPEDIATYYCQQPFNFPYTFGGGTKVEIK
notes: human IgG1
B14: Ab72 (antibody, human IgG1, V domains shown)
VH: QVQLQESGPGLVKPSETLSLTCTVSGGSISSYYWSWIRQPPGKGLEWIGSIYYSGSTNYNPSLKSRVTISVDTSKNQFSLKLSSVTAADTAVYYCARSGTETLFDYWGQGTLVTVSS
VL: DIQMTQSPSSLSASVGDRVTITCQASQDITNYLNWYQQKPGKAPKLLIYDASNLETGVPSRFSGSRSGTDFTFTISSLQPEDIATYYCQQDVNYPPTFGGGTKVEIK
notes: human IgG1
B15: Ab11 (antibody, human IgG1, V domains shown)
VH: EVQLVQSGAEVKKPGESLKISCKGSGYSFTTYWIGWVRQMPGKGLEWMGIIYPGDSDTRYSPSFQGQVTISADKSISTAYLQWSSLKASDTAMYYCARAGHYDGGHLGMDVWGQGTTVTVSS
VL: EIVLTQSPGTLSLSPGERATLSCRASQSVSSDYLAWYQQKPGQAPRLLIYGASSRATGIPDRFSGSGSGTDFTLTISRLEPEDFAVYYCQQDYSYPWTFGGGTKVEIK
notes: human IgG1
B16: Ab20 (antibody, human IgG1, V domains shown)
VH: QVQLQESGPGLVKPSETLSLTCTVSGGSISSYYWSWIRQPPGKGLEWIGSIYYSGSTNYNPSLKSRVTISVDTSKNQFSLKLSSVTAADTAVYYCARSGMASFFDYWGQGTLVTVSS
VL: EIVLTQSPGTLSLSPGERATLSCRASQSVSSDYLAWYQQKPGQAPRLLIYGASSRATGIPDRFSGSGSGTDFTLTISRLEPEDFAVYYCQQFSSHPFTFGGGTKVEIK
notes: human IgG1
B17: Ab64 (antibody, human IgG1, V domains shown)
VH: EVQLVQSGAEVKKPGESLKISCKGSGYSFTSYWIGWVRQMPGKGLEWMGIIYPGDSDTRYSPSFQGQVTISADKSISTAYLQWSSLKASDTAMYYCARLGRWSSGSTAFDIWGQGTMVTVSS
VL: EIVMTQSPATLSVSPGERATLSCRASQSVSSNLAWYQQKPGQAPRLLIYGASTRATGIPARFSGSGSGTEFTLTISSLQSEDFAVYYCQQDDDGYTFGGGTKVEIK
notes: human IgG1
B18: Ab10 (antibody, human IgG1, V domains shown)
VH: EVQLVQSGAEVKKPGESLKISCKGSGYSFTSNWIGWVRQMPGKGLEWMGIIYPGDSDTRYSPSFQGQVTISADKSISTAYLQWSSLKASDTAMYYCAREAGYDYGELAFDIWGQGTMVTVSS
VL: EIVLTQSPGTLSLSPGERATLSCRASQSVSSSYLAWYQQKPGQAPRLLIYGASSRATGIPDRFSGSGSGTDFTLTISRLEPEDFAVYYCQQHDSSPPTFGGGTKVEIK
notes: human IgG1
B19: Ab4 (antibody, human IgG1, V domains shown)
VH: QVQLVQSGAEVKKPGSSVKVSCKASGGTFSSYAISWVRQAPGQGLEWMGGIIPIFGTASYAQKFQGRVTITADESTSTAYMELSSLRSEDTAVYYCARGVDSIMDYWGQGTLVTVSS
VL: EIVMTQSPATLSVSPGERATLSCRASQSVSSNLAWYQQKPGQAPRLLIYSASTRATGIPARFSGSGSGTEFTLTISSLQSEDFAVYYCQQDHDYPFTFGGGTKVEIK
notes: human IgG1

Experiments:
[1] = target: T1, human TREM2 Fc fusion protein; test: ForteBio or MSD-SET, avid
[2] = target: T2, human monomeric His tagged TREM2 protein; test: ForteBio or MSD-SET, monovalent
[3] = target: T3, mouse TREM2 on cells; test: FACS, mTrem2 cells
[4] = target: T4, mouse TREM2 Fc fusion protein; test: ForteBio or MSD-SET, avid

Binder | Kd [1] [nM] | Kd [2] [nM] | MFI [3] [MFI] | Kd [4] [nM] | binding result [4]
B1 | 0.284 | 1.64 |  |  | 
B2 | 0.481 | 3.6 |  |  | 
B3 | 4.44 |  | 228 | 8.51 | 
B4 | 1.42 | 16 |  |  | no binding
B5 | 9.51 |  | 1230 | 4.48 | 
B6 | 0.772 | 14.2 | 4750 |  | 
B7 | 0.513 | 6.77 | 5160 |  | 
B8 | 0.465 | 4.49 | 2300 |  | 
B9 | 1.19 | 2.68 | 1550 | 7.91 | 
B10 | 0.5 | 3.02 |  |  | 
B11 | 0.706 | 27 |  |  | no binding
B12 | 0.451 | 6.82 |  |  | no binding
B13 | 0.49 | 14.2 |  |  | no binding
B14 | 0.839 | 29.4 | 3750 |  | 
B15 | 0.934 | 7.2 | 5500 | 1.19 | 
B16 | 0.658 | 3.62 | 11200 |  | 
B17 | 0.945 | 65.7 | 8680 |  | 
B18 | 0.544 | 4.79 | 11500 |  | 
B19 | 0.971 |  | 295 |  | no binding
